{
  "source": "the nanobody polyreactivity screen of Harvey et al. (2022)",
  "data": [
    {"experiment": "yeast display, Sf9 membrane polyspecificity reagent, FACS + sequencing; frameworks hold sequencing errors", "method_in_brief": "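Nanobodies came from a synthetic yeast display library in Saccharomyces cerevisiae BJ5465, induced with galactose for 36–48 hours and stained for 1 hour at 4 °C with 10% biotinylated, detergent-solubilized Sf9 membrane reagent. Cells were enriched on streptavidin microbeads and then FACS-sorted, with low and high (top ~1%) gates set on anti-HA fluorescence for expression and streptavidin fluorescence for reagent binding. Each polyreactivity label reflects the gate a clone came from. Genes were amplified by colony PCR, sequenced by MiSeq 2 × 250 and filtered by CDR length.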", "values": [
      {"sequence": "QVQLQESSGGLVQAGGSLRMSCAASGTIFHFHIIGWYRQAPRKEREFVAASSYGTRTYYADSVKGRFTISRDNAKNTVYLQMNSQKPEDTAVYYCAVYDYLEVYCWYWGQGTQVTVRS", "polyreactivity (PSR sort gate)": "low polyreactivity"},
      {"sequence": "QVQLQESVGGLVQAGGSLLLSCAASGNIFPTDRMGWYRQAPGKELEFVATISHGGSTNYADSVKGRFTISRDNAKNTVYLEMNSLKPEDTAVYYCAVWSLGRWRHYFWGQGTQVTVSS", "polyreactivity (PSR sort gate)": "low polyreactivity"},
      {"sequence": "QVQLQESVGGLVQAGGSLRLSCAASGNIFDADIMGRYRQAPGKERELVASITDGGSTNYADSVKGRFTISLDNAKNTVYLHMNSLKPEDTAVYYCAARPHRYTSRHGYWGQGTQVTVSS", "polyreactivity (PSR sort gate)": "high polyreactivity"},
      {"sequence": "QVQLQESVVGLVLAGGSLRLICSASANISVYGSMGWYRKAPGKEREFVATIDPGTNTNYADSVKDRFTISRDNAKNTVFLQINSLKPEYTAVYYCAVEGGSDWPYRYWGQGTQVTVSS", "polyreactivity (PSR sort gate)": "low polyreactivity"},
      {"sequence": "QVQLQQSGGGLVQAGGSLRLSCAASGSIFDGFNMGWYRQAPGKAREFVAAIRYGASTYYADSVKGRFTVSRDNAKNSVYLQMNSLNPEDTAVYYCAKAYSDGYFPTFDYDYWGQGTQVTVSS", "polyreactivity (PSR sort gate)": "low polyreactivity"},
      {"sequence": "QVQLQVSGGDLVQAGGSLRLSCAASGTIYGLTSMGWYRQAPGKEREFVAAITDGGNTNYADSVKGRFTISRDNAKNSVYLQMISLTPEDTAVYYCALLFSDEAYYAYCGQGTQVTVSS", "polyreactivity (PSR sort gate)": "low polyreactivity"},
      {"sequence": "QVQLQVSGGGLVQAGGSLRLSCEASGSIFLTSEMGWYRQAPGIERELVAAIATGTSTNYADSVKGRFTISRDNAKNTVYLQMNSLKPEDTAVYYCATYHYWGQGTQVTVSS", "polyreactivity (PSR sort gate)": "low polyreactivity"},
      {"sequence": "QVQLRESGAGGRQPAPELLGERQYFYWSADGLVSQAPGKEREFVAGIDRGTITNYADSVRGRFTISRDNAKNTVFRQMNSLKPEDTAVYYCAVPAYGDPRSYYWGQGTHVTVSS", "polyreactivity (PSR sort gate)": "high polyreactivity"},
      {"sequence": "QVQLVASAGGLVQAGRSLRLSCAASGRIFSWYTMGWYRQAPGKERELVADITYSGGSTYYADSVKGRFTISRDNAKNTVYLQMNSLKPEDTAVVYCIADPRWYHFEYGYWGQGTQVTVSS", "polyreactivity (PSR sort gate)": "high polyreactivity"},
      {"sequence": "QVQLVASGGGLVQAGGSLRLSCAASGLIFYIYMGWYRQGPGKERELVAVISSSGNSTYYADSVKGRFTISRDNAKNTVYLQMNSLKQEDTAVSYCNASAYYPPSSSRYDYWGQGTQVTVSS", "polyreactivity (PSR sort gate)": "low polyreactivity"},
      {"sequence": "QVQLVASGGGLVQAGGSLRLSCSASGSIFKYYAMGWYRQAPGKERELVAAISSSGNTYYADSVKGRFTISRDNAKNTVYLQMNSLKPEDTAVYYCAAGIRRYRTYDYWGQGTQVTVSS", "polyreactivity (PSR sort gate)": "high polyreactivity"},
      {"sequence": "QVQLVDSGAGLVQAGGSLRLICAASGSIFPYYAMGWYRQAPGKERELVAGISNGDSTNYADSVKGRFTISGDNAKNTVYLQINSLKPEDTAVYYCSTVLPGGRYYGPYDFWGQGTQVTVSS", "polyreactivity (PSR sort gate)": "low polyreactivity"},
      {"sequence": "QVQLVDSGAGLVQAGGSLRLSCAASGRIFYSYAMGWYRQAPGKDRELVARITRGSSTYYADSVKGRFTISRDNAKNTVYLQMNSLKPEDTAVYYCAKSRYTALTNHWSHDYWGQVTQVTVSS", "polyreactivity (PSR sort gate)": "low polyreactivity"},
      {"sequence": "QVQLVDSGAGLVQAGGSLRLSCAASGRISYVYAMGWYRQAPGKDRELVAGITWSDGSTFYADSVKGSFTISRDNAKNTVYLQMNSLKPEDTAVYYCAARFNRKILGRYYFWGQGTQVTVSS", "polyreactivity (PSR sort gate)": "high polyreactivity"},
      {"sequence": "QVQLVDSGAGLVQAGGSLRLSCAASGSIYYRYALGWYRQAPRQVRELVAAITQSTDSTYYADSVKGRFTISRDNAKNTVYLQMNSLKPEDTAVYYCAAYLVYYRPYAYGYWGQGTQVTVSS", "polyreactivity (PSR sort gate)": "low polyreactivity"},
      {"sequence": "QVQLVDSGGALVQAGGSLRLICAASGSTFIINAMGWYRQAPGKDRELVAAISGRGTRTYYADSVKGRFTISRDNAKNSVYLQMKSLKPEDTAVYYCNAVRSLSFTTEHDYWGQGTQVTVSS", "polyreactivity (PSR sort gate)": "high polyreactivity"},
      {"sequence": "QVQLVDSGGALVQAGGSLRLSCAASGSTFAYYAMGWYRQAPGKERELVAAITASATNTYYADSVKGRFTISRDNAKNTVYLQMNSLKPEDTAVYYCAADDVDVEHQASWDDYDSWGQGTQVTVSS", "polyreactivity (PSR sort gate)": "low polyreactivity"},
      {"sequence": "QVQLVDSGGALVQAGGSLRLSCAASGSTFVVNAIGWYRQAPGKERELVAAIAGGGSTNYADSVKGRFTISRDNAKNTVYLQMNSLKPEDTAVYYCAVDGVEFSSYGYWGQGTQVTVSS", "polyreactivity (PSR sort gate)": "low polyreactivity"},
      {"sequence": "QVQLVDSGGGIVQAGGSLRLSCAASGLTFSDYAMGWYRQAPGKEREFVAAITRNGGSTRYADSVKGRFTISRDNAKNTVYLQMNSLKPEDTAVDYCATDVGFGSKQRPHRPGYGYWGQGTQVTVSS", "polyreactivity (PSR sort gate)": "low polyreactivity"},
      {"sequence": "QVQLVDSGGGIVQAGGSLRLSCAASGSTLKYNAMGWYRQAPGKERELVAAISTSGGNTYYADSVKGRFTISRDNAKNTVYLQMNSLKPEDTAVYYCAKVLGYYYYDYDSWGQGTQVTVSS", "polyreactivity (PSR sort gate)": "low polyreactivity"},
      {"sequence": "QVQLVDSGGGIVQAGGSLRLSCAASGTFDAYAMGWYRQEPGKERELVASISSSGGSTYYADSVKGRFTITRDNAKNTVYLQMYSLNPEDRAVYYCAATDFWYSGYYWGKGTQVTVSS", "polyreactivity (PSR sort gate)": "low polyreactivity"},
      {"sequence": "QVQLVDSGGGKVQAGGSLRLSCAASGRTFLVYAMGWYRQAPGKERELVAAISRSGGRTSYADSVKGRFTISRDNAKNTVYLQMNSLKPEDTAVYYCAASGPPCDMDYWGQGTQVTVSS", "polyreactivity (PSR sort gate)": "high polyreactivity"},
      {"sequence": "QVQLVDSGGGLFQAGGSLRLSCAASGSTFYRYAKGWYRQAPGKERELVATITNSGGSTYYADSVKGRFTISRDNAKNTVYLPRNSLKPEDTAVYYCAAVGGRLRGDRGGYWGQGSQVTVSS", "polyreactivity (PSR sort gate)": "high polyreactivity"},
      {"sequence": "QVQLVDSGGGLVQAAGSLRLSCAASGSTFVTYAMGGYRTAPGKERELVAAISSGAGTNYADSVKGRFTISRDNAKNTVYLQMNSLKPEDTAVDYCAADKAVGDSTRYYYWGQGTQVTVSS", "polyreactivity (PSR sort gate)": "low polyreactivity"},
      {"sequence": "QVQLVDSGGGLVQAGASLRLSCAASGIIFTGYAKGWYRQAPGKERDLVAAISGIGTSTYYADSVKGRFTISRDNAKNTVYLQMNSLKPEDTAVYYCAARYVSRRFLGYYYWGQGTQVTVSS", "polyreactivity (PSR sort gate)": "high polyreactivity"},
      {"sequence": "QVQLVDSGGGLVQAGASLRLSCAASGSIFRFYAMGWYRQAPGKERELVAAITSRGSTNYADSVKGRFTISRDNAKNTVYLQMKSLKPEDTAVYYCAAELVYFVIYDYWGLGTQVTVSS", "polyreactivity (PSR sort gate)": "low polyreactivity"},
      {"sequence": "QVQLVDSGGGLVQAGATLRLSGAASGRIFGCNAMGWYRQAPGKVRELVAAISNGGSTYYADSVKGRFTISRDNAKNTVYFQMNSLKPEDTAVYYCNAAARIGYARRFYYWGQGTQVTVSS", "polyreactivity (PSR sort gate)": "high polyreactivity"},
      {"sequence": "QVQLVDSGGGLVQAGCSLRLSCAASGSTFVTNDMGWSRKAPGKERELVAAISSGTSTNYADSVKGRFTISRDNAKNTFYLQMNSLNPEDTAVYYCAADSLKRDDYWGQGTQVTVSS", "polyreactivity (PSR sort gate)": "low polyreactivity"},
      {"sequence": "QVQLVDSGGGLVQAGGILRLICAASGSTFGFYAMGWYRQAPGKERELVAAITTGGSTNYADSVKGRFTISRDNAKNTVYLQMNSLKPEDTAVYYCNADVFWNPYYDYDFWGQGTQVTVSS", "polyreactivity (PSR sort gate)": "high polyreactivity"},
      {"sequence": "QVQLVDSGGGLVQAGGILRLSCAASGFILSDNAMGWYRQGPGKERELVAAINSGGSTYYADSVKGRFTISRDNAMNTVYLQMNSLKPEDTAVYYCAADFSTWLRAYDYWGQGTQVTVSS", "polyreactivity (PSR sort gate)": "low polyreactivity"},
      {"sequence": "QVQLVDSGGGLVQAGGILRLSCAASGNIIYQNALVWSRHAPGKERELVAAITGRGSSTYYADSVKGRFTSSRDNAKNTVYLQMNSLKPEDTAVYYCAADTTPYDGYYGHGYWGQGTQVTVSS", "polyreactivity (PSR sort gate)": "low polyreactivity"},
      {"sequence": "QVQLVDSGGGLVQAGGILRLSCAASGSIFSSYAMGWYRQAPGKERELVAAITSGGSTYYADSVKGRFTISRDNAKITVYLQMNSLKREDTAVYYCAAYLSYFGYDYWGQGTQVTVSS", "polyreactivity (PSR sort gate)": "low polyreactivity"},
      {"sequence": "QVQLVDSGGGLVQAGGILRLSCAASGSTFDVYAIGWYRQAPGKEWELVAAITWDGDRTYYADSVKGRFTISRDNAKNTVYLQMNSLKPEDTGVYYCNADEGGNYREDYWGQGTQVTVSS", "polyreactivity (PSR sort gate)": "low polyreactivity"},
      {"sequence": "QVQLVDSGGGLVQAGGRLRLSCAASGITFYYNAMGWYRQAPGKERELVATISSRGGSTYYADSVKGRFTISRDNAKNTVYLQMNSLKPEDTEVYYCNAGRSRYRWSTTGYTQVRDDYWGQATQVTVSS", "polyreactivity (PSR sort gate)": "high polyreactivity"},
      {"sequence": "QVQLVDSGGGLVQAGGRLRLSCAASGRTFSKYAMGWYRQAPGKERELVASITRSGGSTNYADTVKGRFTISRDNAKNTVYLQKNSLKPEDTAVYYCRRKLGRTHDTGFDYWGQGTQVTVSS", "polyreactivity (PSR sort gate)": "low polyreactivity"},
      {"sequence": "QVQLVDSGGGLVQAGGRLRLSCAASGSTFGWYGMGWYIQAPGKERELVASINWRGSSTYYADSVKGRFTMSRDNAKNTVYLQMNSLKPEDTAVYYCATTRDWAYNYWGQGTQVTVSS", "polyreactivity (PSR sort gate)": "low polyreactivity"},
      {"sequence": "QVQLVDSGGGLVQAGGRLRLSCAPSGSIIIDNAMGWYRQAPGKERELVAAISSSGGSTHYADSVKGRFTISRDNAKNTVYLQMNSLKPEDTAVYYCAAKRGWRGGYYWGQGTQVTVSS", "polyreactivity (PSR sort gate)": "high polyreactivity"},
      {"sequence": "QVQLVDSGGGLVQAGGSHRLSCADSGTFVYNAMGWYRQAPGKEREFVAAITKSGTSTSYADSVKGRFTISRDNAKNTVYLQMNSLIPEATAVYYCNARRYWYRRAYSVGYDYWGQGTQVTVSA", "polyreactivity (PSR sort gate)": "high polyreactivity"},
      {"sequence": "QVQLVDSGGGLVQAGGSLGLSCAASGSIFRNYAMGWYRQAPGKERELVAAISYRVGRTYYADSVKGRFTISRDNAKNSVYLQMNSLNPEDTAVYYCAADSRSPGHDYWGQGTQVTVSS", "polyreactivity (PSR sort gate)": "low polyreactivity"},
      {"sequence": "QVQLVDSGGGLVQAGGSLPLSCAASGFSFVYYAMAWYREAPGKEREFVAAITERGGSTDYADSVKGRFTISRDNAKNTVYLQMNSLKPEDTAVYYCASRNAYVYGMDYWGQGTQVTVSS", "polyreactivity (PSR sort gate)": "low polyreactivity"},
      {"sequence": "QVQLVDSGGGLVQAGGSLRITCAASVLTFRRNPMGWYRQAPGKARELLGTITSGGSTNYADTVKGRFTISRDNAKNTVYLQMNSLKPEDTAVYYCNSVHLRIMYYWGQGTQVTVSS", "polyreactivity (PSR sort gate)": "high polyreactivity"},
      {"sequence": "QVQLVDSGGGLVQAGGSLRLICAASGFIFTDYAMGWYRQAPGKEREFFAAIDWSGGNTYYADSVKGRFTISRDNAKNTVYLQMKSLKPEDTAVYYCAASGSAREYDYWGQGTQVTVSS", "polyreactivity (PSR sort gate)": "low polyreactivity"},
      {"sequence": "QVQLVDSGGGLVQAGGSLRLICAASGRSFYNYAMGRYSEAPGKERELVAAIAGSGGSTYYADSEKGRVTISRDNAKNTGYLQMNSLKPEDTAVDYCSTSGPQYYSRNFDDWGQGTQVTVSS", "polyreactivity (PSR sort gate)": "low polyreactivity"}
    ]}
  ]
}
